Laboratory results published in patent US20220372093A1 (CUE BIOPHARMA, published 2022).
Numbering of substitutions follows the chain as printed. In names and notes the source's numbering stands.

T1: TGF-β3 (Homo sapiens, UniProt P10600)
T1 construct: also called transforming growth factor beta 3
T1 sequence (TGF-β3 polypeptide, looked up): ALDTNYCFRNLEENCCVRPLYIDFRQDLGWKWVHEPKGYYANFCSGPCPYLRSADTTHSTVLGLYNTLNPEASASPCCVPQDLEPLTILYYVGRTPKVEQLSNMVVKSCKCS

B1: Δ14 (receptor)
TβRII polypeptide: VTDNNGAVKFPQLCKFCDVRFSTCDNQKSCMSNCSITSICEKPQEVCVAVWRKNDENITLETVCHDPKLPYHDFILEDAASPKCIMKEKKKPGETFFMCSCSSDECNDNIIFSEEYNTSNPD
notes: also called TβRII Δ14 (N-terminal aas 1-14 deleted)
B2: D32A (receptor)
TβRII polypeptide: IPPHVQKSVNNDMIVTDNNGAVKFPQLCKFCAVRFSTCDNQKSCMSNCSITSICEKPQEVCVAVWRKNDENITLETVCHDPKLPYHDFILEDAASPKCIMKEKKKPGETFFMCSCSSDECNDNIIFSEEYNTSNPDLLLVIFQ
notes: also called TβRII D32A
B3: I53A (receptor)
TβRII polypeptide: B2 TβRII polypeptide with A32D, I53A
notes: also called TβRII I53A
B4: T51A (receptor)
TβRII polypeptide: B2 TβRII polypeptide with A32D, T51A
notes: also called TβRII T51A
B5: F30A (receptor)
TβRII polypeptide: B2 TβRII polypeptide with F30A, A32D
notes: also called TβRII F30A
B6: E119A (receptor)
TβRII polypeptide: B2 TβRII polypeptide with A32D, E119A
notes: also called TβRII E119A
B7: S52A (receptor)
TβRII polypeptide: B2 TβRII polypeptide with A32D, S52A
notes: also called TβRII S52A
B8: D32N (receptor)
TβRII polypeptide: B2 TβRII polypeptide with A32N
notes: also called TβRII D32N
B9: L27A (receptor)
TβRII polypeptide: B2 TβRII polypeptide with L27A, A32D
notes: also called TβRII L27A
B10: V77A (receptor)
TβRII polypeptide: B2 TβRII polypeptide with A32D, V77A
notes: also called TβRII V77A
B11: S52L (receptor)
TβRII polypeptide: B2 TβRII polypeptide with A32D, S52L
notes: also called TβRII S52L
B12: D118A (receptor)
TβRII polypeptide: B2 TβRII polypeptide with A32D, D118A
notes: also called TβRII D118A
B13: I50A (receptor)
TβRII polypeptide: B2 TβRII polypeptide with A32D, I50A
notes: also called TβRII I50A
B14: S49A (receptor)
TβRII polypeptide: B2 TβRII polypeptide with A32D, S49A
notes: also called TβRII S49A
B15: E119Q (receptor)
TβRII polypeptide: B2 TβRII polypeptide with A32D, E119Q
notes: also called TβRII E119Q
B16: E55A (receptor)
TβRII polypeptide: B2 TβRII polypeptide with A32D, E55A
notes: also called TβRII E55A

biological target: T1, TGF-β3; assay: not stated on the sheet; drawn table of Kd of TβRII variants (paragraph 345 cites Groppe et al. 2008 and De Crescenzo et al. 2006)

Row | Kd | Binder
1 | 0.68 µM | B1

biological target: T2, TGF-β1 (Homo sapiens, UniProt P01137); assay: as above
T2 construct: also called transforming growth factor beta 1
T2 sequence (P01137 279-390 limits assumed): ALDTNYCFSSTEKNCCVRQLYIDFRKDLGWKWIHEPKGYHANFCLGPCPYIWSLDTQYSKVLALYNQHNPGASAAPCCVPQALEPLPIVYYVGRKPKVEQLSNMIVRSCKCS

Row | Kd | Binder
2 | 3.52 µM | B2
3 | 2.49 µM | B3
4 | 2.97 µM | B4
5 | 44 µM | B5
6 | 3.35 µM | B6
7 | 0.6 µM | B7
8 | 5.9 µM | B8
9 | 7.97 µM | B9
10 | 0.69 µM | B10
11 | 154 µM | B11
12 | 1.51 µM | B12
13 | 7.96 µM | B13
14 | 0.79 µM | B14
15 | 5.95 µM | B15
16 | 2.99 µM | B16
17 | 0.32 µM | B1
